The results in this text go back to a protein production outcome set (Wang et al. 2014).

A short description of this data set: label from the status in PepcDB records.
Regarding “MPNNDSFYKKVLDNLYDGIYFVDEQRRITYWNKGAQMLTGYGEKEVIGRNCHDIFLHLDSNGNGICSDACPIEKTITDGRKRDEESFLHHKDGHLVPVCLRVAPIQDTDGQMVVAVEVTGDHSPRHALRQQLENLQRLALCDPLTTIANRRYVEMSLNSRLEEMRRYGWHFGILFLDVDHFKQINDTHGHDTGDRVLKMVAKTLVNSARSFDVVGRWGGEEFIAVLANISRRQLPRIADRFRHLVEQSSFRLDDRLLRVTVSVGATMSHLDDTVESLVQRADTLMYRSKQAGRNCVSIGFGEEMPETSATPSASP”, the protein production entry was “failed”.
On to “MPNQVLFCITKMRYEEKRIYHYLEESGLSIKIMLDSSNLDEVVAHNSDYCLCIVRVMSQHRAFRIAEYMEALGIPTLNSSRAIQICADKAIQALILANRDVIKQPHFSILRNYEDLSNFNGKMVVKPVSSSWGRGISLIENEDALTTWKISHQELDIQNQNLPYLIQEFIDKPNYDVRIVIINTKPVVAFKRVSANNWKTNTHLGATVVPIVIDDSINKIVTEIIKVVGPGIYGLDLMKNRQNEWIFCEINQNPEFAHSWKIHHVDVAEKIAQYVSSKVKVGQKNASTHLEHHHHHH”, for which the protein production result was “failed”.
Take “MPNTTAKKDYTKYSEKQLFNLIHQLERKIKKMQNDRISFKEKMAKELEKRDQNFKDKIDALNELLQKISQAFDDKRDCCLGHEIPNIETQQAMRDALNGINLTQIDSLDDFTNELKRENSKGFENVCFSV”: the protein production result is “failed”.
Regarding “MPPMPVPIRILSVLLLVAMSASATAAPKKAPPASPPSSAGASSLEPVLAGEFALQAGQLDDAARAYLDAAKAEAGDAGLAERAARISMLANDDPRAIEALALWRARAPSSMSMRSTEASLALRRNDLRTARRDLLGLLKEPDPRGWRFALIALANGGREPEASADVLEDLVKAGAIPNQIEAWQEFGRLALRMERPALAKRIVDEVVRRFPEEPRVALLHATQLQQEGKNDEALALLKNIEPQAVKDSELRGALAFAYDAMGQTEAAARVLSTGPQDTQTYGLRASMLAKEKDRSSLEALYAELKSNATKPDPDRRLLLGKIAEFLKRYDEAVEWYRGVPGGPQLSEARLRAASALYELGRKPEALAEARALQGDASADDDARRDAYVLEAELHQRADDAPGELDAFERGLAAYPDDSALLYARGLAWERRDDVPRAEADLRKILVTEPENVAALNALGYTLADRTTRYKEALALIDRARTADPDNPAIVDSYGWVLYRMGRTKEALVQLRRAWALVKDPEIAAHVGEVLWVSGKQDEARRYFDEARRLDPDNRALQRAVEKFGL”, the protein production result is recorded as “failed”.
Under “MPPPAAAAGLAGRPGRGAGSRLRPAVAAAGRRAHMIRCRHGGPRLQDIRNTVGNVPLEWYDDFPHVGYDLDGRRIYKPLRTRDELDQFLDKMDDPDYWRTVQDPMTGRDLRLTDEQVALVRRLQSGQFGDVGFNPYEPAVDFFSGDVMIHPVTNRPADKRSFIPSLVEKEKVSRMVHAIKMGWIQPRRPRDPTPSFYDLWAQEDPNAVLGRHKMHVPAPKLALPGHAESYNPPPEYLLSEEERLAWEQQEPGERKLSFLPRKFPSLRAVPAYGRFIQERFERCLDLYLCPRQRKMRVNVDPEDLIPKLPRPRDLQPFPTCQALVYRGHSDLVRCLSVSPGGQWLVSGSDDGSLRLWEVATARCVRTVPVGGVVKSVAWNPSPAVCLVAAAVEDSVLLLNPALGDRLVAGSTDQLLSAFVPPEEPPLQPARWLEASEEERQVGLRLRICHGKPVTQVTWHGRGDYLAVVLATQGHTQVLIHQLSRRRSQSPFRRSHGQVQRVAFHPARPFLLVASQRSVRLYHLLRQELTKKLMPNCKWVSSLAVHPAGDNVICGSYDSKLVWFDLDLSTKPYRMLRHHKKALRAVAFHPRYPLFASGSDDGSVIVCHGMVYNDLLQNPLLVPVKVLKGHVLTRDLGVLDVIFHPTQPWVFSSGADGTVRLFT” stands “failed”; under “MPPPTASTPDDSADPGPDFADVPPTDLVKVGFIFRPHGLDGELKIDPSATDDPARFEVLPTVFVGPHPRRVVRHDIASVRYQKTKRGITVILGLDGIVDRDDAEAVAKMDVFATEAALGLEDDELFADDLVGWTVVTEEGAVQGTVADFMEMPAQDLFVVRTPEDTEAMIPAIDDFIIEIDEEAERIVVRPIDGLMDALEHHHHHH”, “failed”; under “MPPVPGVPFRNVDNDSPTSVELEDWVDAQHPTDEEEEEASSASSTLYLVFSPSSFSTSSSLILGGPEEEEVPSGVIPNLTESIPSSPPQGPPQGPSQSPLSSCCSSFSWSSFSEESSSQKGEDTGTCQGLPDSESSFTYTLDEKVAELVEFLLLKYEAEEPVTEAEMLMIVIKYKDYFPVILKRAREFMELLFGLALIEVGPDHFCVFANTVGLTDEGSDDEGMPENSLLIIILSVIFIKGNCASEEVIWEVLNAVGVYAGREHFVYGEPRELLTKVWVQGHYLEYREVPHSSPPYYEFLWGPRAHSESIKKKVLEFLAKLNNTVPSSFPSWYKDALKDVEERVQATIDTADDATVMASESLSVMSSNVSFSE”, “failed”.
Turning to “MPQLQKEWFDTWFDTPYYHILYSNRDESEAEVFLTNLMNHMAVPKGASILDLPCGKGRHTLFLAEKGYTLTGADLSVASIALAQSHAPAGVTFLVHDLRKPAWNESFDYVLNLFTSFGYFETEAEDRAAFTTLSKALKSGGSLVIDFMNVTRAVNLLKEEETKVMEGIEFQLKRYVKDGYIHKEIRFEADNTPFFFTERVKALTLDDFKEFFTFAGLTLVDTFGSYQLDAYDAAESDRLIMIAKKLEHHHHHH”, the protein production entry is “not failed”.
For “MPQTPPFPVMYGSTNGYNKNLYKAKEEDYEGLYYHDNNLISGSLEALIEHLVPTVAYYPDRTYIFTFLLSSRLFLHPYELMSKVCHLCVDQQRLSDPQADKARVRKIAPKILQLLTEWTETFPYDFRDERMMKSLKELTHRLSTGEDLYRKAVQQMTQTLIRKLTTLSQYEEALAKINSSVTDRLTVLKTKPQSIQRDILTICNDPFTLAQQLTHIELERLSYIGPEEFVQAFVQKDPLDNDKNCFSDHKKASNLEAYVEWFNRLSYLVATEICMPVKKKHRARVIEFFIDVARECFNIGNFNSLMAIITGMNMSPVSRLKKTWAKVKTAKFDILEHQMDPSSNFYNYRTALRGATQRSITAHSSREKIVIPFFSLLIKDIYFLNEGCANRLPNGHVNFEKFWGLAKQVTEFMTWKKVECPFDRDRKILQYLLTAPVFSEDALYLASYESEGPENNMEKDRWKSLRSSLLNRT” the value was “not failed”.
With “MPRCIIYVDFPCWHPVRQRPLRVRGRFRTFVRSHAFPSPPVSDPSPSSSDASPPDALVIIPTYNEADNIGPVIDQVLEQSPPLSVLVVDDNSTDGTADLVRSKKTDALDRVHLIERSGKLGLGTAYLRGFRYALAQDYTYICEMDADRSHDPNDLPRLIAPVREGEVALAIGSRYVEGVRVINWPLSRLVLSYGAGVYTRAITRLPLLDVTAGFKCFHRRVLETLPLDRVNSDGYAFQVEMHYRTWRAGFPFTEVPVVFTERTEGESKMRREIVVEAALKVWELRLQDLLGRL”, the protein production entry is given as “failed”.
With “MPRLTTRALTRCLLATLALLCIALPALAAAPITPLRVMSFNVRVPVDTDGDKRWQARRGAMVSVIKQTHPDVFGTQELVSEQAGYLAAQLPNYRWFGQGRRGDDSDEHMGVFYDTRTLNVVESGNFWLSDTPEVAGSITWGNVLPRMVTWALFERRSDKRRFYLFNTHFPYRDEDEPAREHSARLILSRIAQLPADIPVVLTGDFNSDPDKITYPTLTAVLGDARARAPKRSGPENTFQDFSTHPTRRIDWILFRGLTPTQFTTLDDRPGGVLPSDHYPVLAEFAWPR”, the protein production result is recorded as “failed”.
For “MPRNNKTSLIQKIASQAYATFTNCSSSAIEDNNKVFLEHQADLVALLSDIRAADLKIAPPTKVSTSSPSVPPVTYMHICETDVFSMGVFLLKSGASIPLHDHPGMHGMLKVLYGKVSIRCYDKLDKAESDTERHFDPPLLAFQGDDVRRAALRSSGQFSELSGPCVLSPFKDNLHEIDAVDGAAAFLDILAPPYDPDDGRDCHYYRVLQTAGKKSEQSGDDEAWLLEIPQPDDFWCGGEPYPGPEVTI” the value was “not failed”; for “MPRPLVDEVRFLRSWIEKPLHMGAVMPSGKLLARTMARYVDIQSDGPVIELGPGTGAITNALVEHGVDQKRLVLLEFDPGFCALLRERFPLAKVVQGDAYRLRDSLWDALEIPATAVVSGLPLVTKPMLTRMKLIRDAFTLLEPGAPFVQFTYSVAPPIPKSLPGVSTEGSERIWMNVPPARVWVYRKRLEHHHHHH”, “not failed”.
For “MPSEVTEEFIIIIAVVLIGLVLFGFVTSYFIPHEIFSLAQQQASSISSSTTVSVGPLIFNSGSASTVIEAYNPAISGNITLIVFPEPSYLQQDVGLVTPQSPPQFSVYLSNEKLAKSFTISIPIYDVNGRIIYDSQITAYTVPFNTPVTITVNGVGGSNYILIVWVLYNSNGYWFRIGYTFTGVPST” the value was “failed”.
For “MPSFLEISPDKLNRLIGTPGAPRIIDVRTDEDFALDPRLVPGSIRRDHAEVASWADSIDADAVVVVCHRGAKLSHGVAAYLRHAGIEAESLAGGFEAWAAAGPAVPEAKLEHHHHHH” the value was “failed”; for “MPSFRRSVAAVVTALPLIAGGCAHRPAVETASPEAVQWNLSDGAETTFYYLMLDQAARSDNTRDAIEAIENLIRLSPTARVYNDSGSFLLSRKEPDLARDILTRGVAAHPDDLGLTLLLAESYLDLDRNDEAIALLRAYNAKHPKDDEARQELAQLLVKTRRYEEADKLILSIGETSRTSLLRYYHARALMGLNRLTEATAQLRKAVKASPDFLEAWAELAYVYELRKNYVEAEKIYEQILALDEGNQDVWLRLVAINIKLNNPVKAYELARQGPETFGFMLTAATLFLDDRFFEQAEGLLLAVKDSPGAPEEVYFFLAVLAYEGQRDTDATLSWLLEVRPTNKYYDRALRLRSQLLYEKGDLEAALRTAREGRETFPEQRDFREMEAQLLVNMGRSEEALRVIDKAADRWPDDSGLLFMRALILDDRGAKDAAFAAMEEVIKASPNHAQALNYVGYTLAEQERDLTRAVSLLERANTLSPDNPFILDSLAWAYFKAGRIPEAWKAISRAIELNAPDPIIWEHYGDIATAMGQKNTARRAYRKALSMNPQNPDAIKAKLDKK”, “failed”.
Take “MPSMSPIDKSWSTCPYGFLDGTHQELRRIFHLWRCKKYRSQFTEEKKATYEEKLAASELFKDKKALYPSSVSQPFKGDYVEITKNPKYQKLNSLVEDKVLLADVVSKINRANGKGTPRIFLLTKKCLVLADQKTGQVKASVPLPDLSSVFVSTQNDGFFALKLREGATSAAKGDYLLSSDRLIEIITKLYCTGAASAERNQIKIDISDEFLVQFKQDKVCVKFIQGTPKNSNSVSCKRKNNRLLEVSVPSP”: the protein production result is listed as “failed”.
For “MPSQDWERSVLGCSMQVGQGWCCVDLSDISCVQDVAKEVLDCYGCVDILINNASVKVKGPAHKISLELDKKIMDANYFGPITLTKVLLPNMISRRTGQIVLVNNIQAKFGIPFRTAYAASKHAVMGFFDCLRAEVEEYDVVVSTVSPTYIRSYRASPEQRNWETSICKFFCRKLAYGVHPVEVAEEVMRTVRRKKQEVFMANPVPKAAVFIRTFFPEFFFAVVACGVKEKLNVPEEG” the value was “failed”; for “MPSQLGITLKQVRLQQHLSQATVATGICAQSMLSAIENGKYTPNATLLMRLCQRLKISLDQLSLAENFTISDLEQINDRLAKLCNHHRYADLREFLLTDAVQARLTTDVQLAAYYYYLGITDFQLGHLTDAQQQFQLALASAPAQHRTTLSRLCWMSLALIHASRQQANASEEAMTQAVTQLKTAPYEANLNSLFYLAAVSHLKLNQLTIAAQWLERGIDFATDHDSHYMLANDYHLLAVIASRSEQIDQQRTAQATEHVLTTLFHESIYDRLD”, “failed”.
